The labels stand for the following.
T1: RbcL (Rubisco large subunit) from Synechocystis sp. PCC6803, unfolded, isolated from inclusion bodies (Synechocystis sp. PCC6803, UniProt P54205 1-470)
T1 chain: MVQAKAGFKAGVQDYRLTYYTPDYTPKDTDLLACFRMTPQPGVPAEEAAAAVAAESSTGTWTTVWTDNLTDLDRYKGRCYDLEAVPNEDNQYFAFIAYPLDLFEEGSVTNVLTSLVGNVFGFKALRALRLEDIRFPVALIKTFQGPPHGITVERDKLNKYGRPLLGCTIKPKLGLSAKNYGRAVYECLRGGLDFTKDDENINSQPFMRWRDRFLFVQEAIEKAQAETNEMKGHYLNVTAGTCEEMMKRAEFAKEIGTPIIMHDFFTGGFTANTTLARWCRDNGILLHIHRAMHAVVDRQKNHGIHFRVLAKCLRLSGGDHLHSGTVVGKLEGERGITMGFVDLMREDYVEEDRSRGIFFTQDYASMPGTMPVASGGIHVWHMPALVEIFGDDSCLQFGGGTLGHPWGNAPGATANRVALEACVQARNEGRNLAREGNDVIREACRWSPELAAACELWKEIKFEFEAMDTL

B1: DnaJ Sll1384 from Synechocystis sp. PCC6803, His-tagged (natural protein, UniProt P74157 1-314, looked up)
chain: MSSFPIKQGLFNYDVVDHHAILGCPLDATPEEIRKSYLKIAFQLHPDTSKATNEEEQALAAKLFSKFVNPAYEVLSRENDRKEHLLIIQQTVSNLASIGQPSFSSAESQKLQGAKQNLELVYRKVVTPLSKGLYEDFKTVFRKIAQVSEYNLIFLMVKGENASARPVFQTIASSKETVPPVVSGRSPQGPTPTPPINNPPAEELSPFEKSLRRAQENFDRRQYEKAIAELKSALKTDPKNAQAHCLLGMAYLKNNMMTMAKVHIGSAVKLDPNDPKVMAAKKELAKHTSSGSSQEGAKSSQGGFLGGLFGGKKK
modifications: RED-tris-NTA dye on the His-tag (MST only)
notes: DnaJ homolog Sll1384 (J domain plus C-terminal TPR domain), Synechocystis sp; PCC6803; gene amplified from total DNA with primers Fwsll1384 (NdeI-ATG) and Rvsll1384 (stop codon), cloned into pET16b; also called DnaJ Sll384; source: E. coli Lemo21, purified (Ni-NTA HisTrap, dialysis); not shown: His-tag, N-terminal, kept
B2: RbcL (Rubisco large subunit) from Synechocystis sp. PCC6803, unfolded, isolated from inclusion bodies (natural protein, UniProt P54205 1-470, looked up)
chain: T1 chain
notes: Ribulose-1,5-bisphosphate carboxylase/oxygenase large subunit (RbcL), Synechocystis sp; PCC6803; used denatured/unfolded; Used as an unfolded protein diluted from GdnHCl; also called unfolded RbcL; denatured RbcL peptide; source: E. coli BL21 (DE3), purified from inclusion bodies, solubilized in 4 M GdnHCl

Assay [1] addresses T1, RbcL (Rubisco large subunit) from …. Description: MST; with ATP.
For assay [2], the target named is B2. Description: MST; His-tagged chaperone labelled with RED-tris-NTA (4 µM or 200 nM) and unfolded RbcL in PBS-T (0.1% Tween 20), with ATP; Monolith NT.115 pico; 1:1 binding model. Particulars: both partners purified.
Assay [3] deals with T2, DnaK2 together with DnaJ Sll1384 (both tested chaperones, with ATP) in the MST titration (Synechocystis sp. PCC6803, UniProt P22358 1-636; P74157 1-314).
T2 construct: DnaK2, Synechocystis sp; PCC6803, as the chain of m3; DnaJ Sll1384, Synechocystis sp; PCC6803, as the chain of m2; also called DnaK + DnaJ; source: E. coli Lemo21, each purified (Ni-NTA; DnaK2 also Superdex 200), mixed
T2 sequence (P22358 whole entry, one chain of several): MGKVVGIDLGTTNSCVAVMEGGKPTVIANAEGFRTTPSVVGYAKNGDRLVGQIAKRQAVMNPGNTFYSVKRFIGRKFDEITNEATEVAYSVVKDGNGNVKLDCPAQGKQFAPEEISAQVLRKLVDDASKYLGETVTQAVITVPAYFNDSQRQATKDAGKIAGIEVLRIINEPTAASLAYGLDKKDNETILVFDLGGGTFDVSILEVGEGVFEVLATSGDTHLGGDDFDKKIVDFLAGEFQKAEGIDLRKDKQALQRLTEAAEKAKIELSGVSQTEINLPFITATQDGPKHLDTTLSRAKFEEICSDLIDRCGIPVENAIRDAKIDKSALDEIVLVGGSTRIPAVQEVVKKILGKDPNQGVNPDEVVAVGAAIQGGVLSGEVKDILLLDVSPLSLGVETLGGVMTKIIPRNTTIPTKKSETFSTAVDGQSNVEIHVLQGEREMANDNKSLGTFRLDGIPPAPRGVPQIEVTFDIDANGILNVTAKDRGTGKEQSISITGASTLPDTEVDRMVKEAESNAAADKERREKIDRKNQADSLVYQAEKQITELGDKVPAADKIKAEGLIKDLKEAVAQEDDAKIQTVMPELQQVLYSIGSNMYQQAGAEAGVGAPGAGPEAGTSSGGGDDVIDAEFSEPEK
Described as above. Particulars: both partners purified.

For assay [4], the target named is T3, DnaK2 from Synechocystis sp. PCC6803, His-tagged (Synechocystis sp. PCC6803, UniProt P22358 1-636, RED-tris-NTA dye on the His-tag (MST only)).
T3 construct: Hsp70 chaperone DnaK2, Synechocystis sp; PCC6803; gene amplified from total DNA with primers Fwdnak2 (NdeI-ATG) and Rvdnak2 (stop codon), cloned into pET16b; source: E. coli Lemo21, purified (Ni-NTA HisTrap, Superdex 200); not shown: His-tag, N-terminal, kept
T3 sequence (P22358 whole entry): as the sequence (P22358 whole entry, one chain of several) above
Described as above. The settings on record: both partners purified.

For orientation: Kd means the concentration at which binding is half-saturated. Higher therefore signals lower affinity. In the case of B1, the Kd worked out at 1.36 nM in assay [1] and 1360 ± 2760 nM in assay [2].

Consider B2, for which the Kd in assay [3] is 31.1 ± 1.17 nM; in assay [4] it was 6050 ± 3410 nM.

The values are drawn from publication PMC9948308, “DnaK and DnaJ proteins from Hsp70/40 family are involved in Rubisco biosynthesis in Synechocystis sp. PCC6803 and sustain the enzyme assembly in a heterologous system” (BMC Plant Biology, 2023).
